One test addresses Amyloid-beta 1-40 (UniProt P05067). As to the kind of experiment: BIAcore 2000, antibody captured by rabbit anti-mouse, peptide flowed. A general note: SPR reads the build-up and loss of mass on a sensor chip optically.
The target of the next test is Amyloid-beta 1-42 (UniProt P05067). The description is as above.
Test [1] deals with human Aβ peptide (human) (UniProt P05067). As to the kind of experiment: BIAcore 2000, 266 against 4G8.
For test [2] the target is unchanged. The experiment in a line: plasma of APP V717F mice given 200 or 600 µg Mab 266 i.v., RIA (in vivo).
Test [3] has the same target. As to the kind of experiment: dialysis chamber, 1 mL human CSF against 1 µg Mab 266, 25 kD cutoff, 3 hours, ELISA. On the technique in general: ELISA stands for enzyme-linked immunosorbent assay.
The target is the same in test [4]. The experiment in a line: dialysis chamber, 1 mL human CSF against 1 µg Mab 266, 100 kD cutoff, 3 hours, ELISA.
In test [5] the target is β-amyloid peptide (1-42) conjugated to BSA (UniProt P05067). As to the kind of experiment: competitive ELISA on Aβ1-42-BSA, competitor of biotinylated Mu266 (0.3 µg/ml), first set.
For test [6] the target is unchanged. The experiment in a line: competitive ELISA on Aβ1-42-BSA, competitor of biotinylated Mu266 (0.3 µg/ml), second set.
Test [7] addresses human Aβ peptide (human) (UniProt P05067). As to the kind of experiment: plasma of APP V717F mice given 1 mg Mab 266 i.v., non-denaturing gel, blot with biotin-3D6 and 125I-streptavidin against Aβ40/266 standards (in vivo).

A word on the Kd: it is the free concentration of one partner at which half of the binding sites on the other are occupied at equilibrium, for simple one-to-one binding. The low end stands for tighter binding, the high end for weaker binding. Regarding Mab 4G8 (antibody), the dissociation constant (Kd) with Amyloid-beta 1-40 was found to be 23 nM; with Amyloid-beta 1-42, 24 nM.
Usually IC50 stands for the concentration at which inhibition is half-maximal. A low value points to higher potency. The substance mouse monoclonal antibody 266 registered a fold difference in affinity between 266 and 4G8 with human Aβ peptide (human) [1] of 6000 fold. Besides, the Kd in the test with Amyloid-beta 1-40 and in the test with Amyloid-beta 1-42 was 4000 nM each time. The same substance had a concentration of Aβ bound to Mab 266 in plasma in the test with human Aβ peptide (human) [2] of more than 100 ng/mL. The same substance displayed a percent of Aβ peptide sequestered in the bottom chamber with human Aβ peptide (human) [3] of 50%. This substance showed a percent of Aβ peptide drawn across the membrane with human Aβ peptide (human) [4] of 100%. Also, the values for the IC50 in test [5] and in test [6] were 4.7 µg/mL and 3.87 µg/mL, respectively. The amount of Aβ peptide bound to Mab 266 in plasma with human Aβ peptide (human) [7] was 100 ng/mL.

Values taken from patent US20090238821A1.
